Reference: the DeepSol protein solubility set

Assay: soluble on expression in E. coli; label from the status in PepcDB or PDB records

Row | Sequence | soluble on expression in E. coli
1 | MIMHIPKSTYYHKWFIGATLVVPVLPLAAQTSPNLVFIMADQYRGDALGCLGKEPVKTPCLDHLASEGVLFTNAVSSYPVSSPARAMLMTGMYPLHNKVTGNCNSQTAPYGVELPQEARCWSDVLKDMNYRTGYIGKWHLDSPYKPYVDTYNNRGKVAWNEWCPPERRHGFEYWTAYGTYDYHLKPMYWDTTAPRDSFYYVNQWGPAYEADKAIEYIQTQKENKQPFALVVSMNPPHTGYELVPDKYKALYKDIDVEALCAHRPDIPAKGTEMGNYFRNNIRNYYACITGVDEQVGRIIETLKSNGLFENTIIVFTSDHGICMGAHNNAGKDIFYEEAMRIPMIISWPAKIKPRKDDHLMIAFADLYPSLLSLMGFRKEIPETVQTFDLSRHILGKSKKEVVQPYYYVQFDNHATGYRGLRTSTHTFAVHATNGKIDETVLFDRTKDPYQMDNIAGQSPRLVRQFNKQLKAWLLHTNDSFAHYLETVTK | not soluble
2 | MIMIFTSSCCDNLSIDEIIERAEKGDCEAQYIVGFYYNRDSAIDSPDDEKAFYWLKLAAEQGHCEAQYSLGQKYTEDKSRHKDNEQAIFWLKKAALQGHTFASNALGWTLDRGEAPNYKEAVVWYQIAAESGMSYAQNNLGWMYRNGNGVAKDYALAFFWYKQAALQGHSDAQNNLADLYEDGKGVAQNKTLAAFWYLKSAQQGNRHAQFQIAWDYNAGEGVDQDYKQAMYWYLKAAAQGSVGAYVNIGYMYKHGQGVEKDYQAAFEWFTKAAECNDATAWYNLAIMYHYGEGRPVDLRQALDLYRKVQSSGTRDVSQEIRETEDLLLEHHHHHH | not soluble
3 | MINETKYMRQQITNLIQIIDTIKYNTLMTDWNIQTHIYKFNQIVTNELNKFKGFETSYIINENQVSYYEIITLLNKRPLRQVDYGNKIQYLNFYHTELSNALFAIKFAHLEHHHHHH | not soluble
4 | MINHLSAIDDIADAEQIRVLFYASNRMVHAPLNKVLDLIKNDTQRDLLSALTQYQEATEQRIETLQKNLDALRLQVSLSTHNLKK | not soluble
5 | MINIVIPMAGAGSRFAQAGYKKPKPFIDVLGRPMICHVLDNLNMPDARFILLTRKEHFENEQETVNWIKSKYNVEFVLIDNLTEGAACTVLHAHKLIDNNTPLLIANSDQIVDMNIAEFINDSENRNLDGSVLCFKDHDTKWSYAKIDGEGLITEIREKVVISEFATVGIYYFAKGGFFVKNAIDMIIRNERVKNEFYVAPVYNFGIQEGLKFGIFNININQMHGIGTPTDLNVYIDLVQRNKLEHHHHHH | soluble
6 | MINLELGKDFLDRFTKVCEFLRVEPSLDVVVFECESLEEFHEITGMPYHTGGVYHEGVIYTQPLDVLRRKNSLEATILHELLHHVLEMYFDLPRWMEEGVVLAVLGVKPEEVFGYHRDCLLRFMEKVRYEEIPDLVDRYRRSSVERRLEHHHHHH | soluble
7 | MINMKALVGGIILPVSSPPIKNGVLLFDEESGKIVAVGKKEEVTIPEDAEIIEAPGKYISPGFVDAHSHIGMIPDGLEWEFQEANDFYSPIAPHLRAVDGFDPYDEAFKEAIAGGVTTVATGPGSANVMGGIGLLAKTYEEGFEKIIKPEAFIKMALGPKRPREYKSKYPYPTTRMGTVALMRTWFKRAREFMEGKIKTDNIDEEEIEMLRLLARALKREIQVKIHLSTSPDEIYAAIRIIKEFNLNATIDHAFGSQLVADMLSREGIPVIYGPPMITRIASFFRYVDDKAPVLLFKKGVNVSIMTDHPVLPEKHLRLLAAVVARNGLSLDDALKLITINPAKALGIDRFVGSLEPGKDADIVISSDHPIKPTSKIEIVFGRGREVYKAD | soluble
8 | MIQSDLDLFGPQPQRLASHTVLLPGFALAETEALLDALRPVLRAAPFRHMYTPGGLRMAVALTNCGTLGWVSDQHGYRYSPSDPVSGQPWPALPPVLLALASRAAAMAGFDGFVPDACLVNHYLPGTRLSLHQDRDEQDFGQPIVSVSLGLPAVFLFGGLQRADKAQRIALSHGDVLVWGGVDRLRFHGVLPIKPGVHPRLGERRINLTLRKAGALEHHHHHH | not soluble
9 | MIQSGKIYIRGRTVVFMIIRNEQDLEGLRKIGRIVALAREEMKKEAKPGMTTKELDLIGKKVLDEHGAISAPEKEYDFPGVTCISVNEEVAHGIPGDRVLKEGDLVNVDVSAALDGYYADTGISFVLGEDEAKEKLCQAAVDAFWAAMKKVKAGSKQNQIGRAVSNFAHKNGYNVIQNLTGHGIGLSLHEAPNHILSYFDPMDNALLKDGLVIAVEPFISMKADHIIERGDDGWTFVTPDKSLVAQCEHTVVVTRGEPIILTEI | soluble
10 | MIQTKDIIELTDTYGANNYHPLPIVISKAEGVWVEDPEGNRYMDLLSAYSAVNQGHRHPKIINALIDQANRVTLTSRAFHSDQLGPWYEKVAKLTNKEMVLPMNTGAEAVETAIKTARRWAYDVKKVEANRAEIIVCEDNFHGRTMGAVSMSSNEEYKRGFGPMLPGIIVIPYGDLEALKAAITPNTAAFILEPIQGEAGINIPPAGFLKEALEVCKKENVLFVADEIQTGLGRTGKVFACDWDNVTPDMYILGKALGGGVFPISCAAANRDILGVFEPGSHGSTFGGNPLACAVSIAALEVLEEEKLTERSLQLGEKLVGQLKEIDNPMITEVRGKGLFIGIELNEPARPYCEQLKAAGLLCKETHENVIRIAPPLVISEEDLEWAFQKIKAVLS | not soluble
11 | MIRAVHSAAIVLLVFSYMAEFSGAASGGYAPASVGTQPVGTSFRDRLADGSPGPVMVVIPPGRFRMGAIFGGGDPDEKPVHEVSIPRAFAIGAYEVTFAEYDRFCEATGREKPKDGRRWFGPLSRNWGRGNKPAMNVSWDDAVAYVKWLSDQTGHRYRLPSEAEWEYAARGGKDTPYWWGGTVGQNKANCKGCGSRWDKKITAPVGSFAPNPYGMFDTAGNVWEWCVDTWHESYDGAPADGSPWIGGEDSRRVQRGGSFGSKPRYIRSSARGRGAQDGRYVYLGFRVVRELLEHHHHHH | not soluble
12 | MIRFEHVSKAYLGGRQALQGVTFHMRPGEMAFLTGHSGAGKSTLLKLICGIERPSAGKIFFSGHDITRLKNREVPFLRRQIGMIFQDHHLLMDRTVYDNVAIPLIIAGASGDDIRRRVSAALDKVGLLDKARNFPIQLSGGEQQRVGIARAVVNKPAVLLADEPTGNLDDALSEGILRLFEEFNRVGVTVLMATHDIGLISRRSYRQLVLSDGHLHGGLANE | not soluble
13 | MIRHFKHKGLQLFFETGDKSGIRPDHASRLARQLRQLNDAVNPREMNIPGWKLHPLSGDLSGYWSVMVNGNWRMIFVFDGEDVILVDYRDDH | not soluble
14 | MIRKDLQKLEQEGLLKRTYGGAILERQTIHDDNIRPRLMKNLGEKDIIAKLALKEIKDGDFIFLDASTTNYSIASMLLNTKKQVTVVTNMNRIAILFDSHPSIDVICIGGIYNKNLGGTIGSKAIEDVKSYRFHKAFVGVGGINLVEDFISNFNLEEASMKNAIIKSSLKTYLVAENEKFYTDGICEFAKCEDIDFIISDKKPNEEILKLLKERNISIIYLEHHHHHH | soluble
15 | MIRLVAFDLDGTIGDTIPLCLAAFREATTPYVDHELSDDEIARTFGLNEEGMINQVVYGDSREKALNDFYVIYEEMHAILCPKPFEGMKTLIGQLHERNVIVVLITGKGIRSCDITLKQFGMDGCFDRIETGSSEKNRKSEAMKDILLYYGFKSNEMIYVGDAVSDIEACYFVKIQCLSAAWAASTDCEQLEKYNSGYVFSSVRLLRDFL | not soluble
16 | MIRQTLWSDVAAPLQNAFQTNNSGNRPVLMMLGGYTFSLASLVYQELARVNEYRWAAIERYGQRDARQYTGPGDESIELPGIAYPDWQGQRASLDELRALAAQGKPLQLIDSNGLIHGWYVIERIEERQSDHHPNGTPRRIEFTLALQRVNDDHAVEATP | not soluble
17 | MIRTLELAPHIEGGYFRQTKKASDTINLAGKGRALYTSIYFLLEETNPSHFHRLTADEIWYFHAGSPLTVHMITADGHYEAVTLGLDISKGQQLHYCVPKGTIWGSTVDKDDALVSCLVAPGFEFEDFELFERVDLLATYPEHKEMIERLTRYLEHHHHHH | not soluble
18 | MIRWMNEPLWPFIERKKSMRNLVKYVGIGLLVMGLAACDDKDTNATAQGSVAESNATGNPVNLLDGKLSFSLPADMTDQSGKLGTQANNMHVWSDATGQKAVIVIMGDDPKEDLAVLAKRLEDQQRSRDPQLQVVTNKAIELKGHKMQQLDSIISAKGQTAYSSVILGNVGNQLLTMQITLPADDQQKAQTTAENIINTLVIQ | not soluble
19 | MISAIILSGGKAERMGGEKSFRKSGNKYLIENIADMLIEMEIPFVTVFKNPRFMEKPEEEIEKQLYYYKKYHQTITWDFVPGMGPLIGMLSGMLNTKSQWVFLVPCDMPFITEESIINLLSFIKEAELNGYDCIVPKHKNGFIEPLFSLYHISSVNVLGMVVEEMLEQNRSFPIRRLIDELNPLYVDVDKIDKTCDIFINLNTLKELENACFDRLEHHHHHH | soluble
20 | MISCFNRQCPTGTISYTVRAGDTLYLIAGRFNTTVEAILAANPGIVPERLYIGQVICVPYAQPPQPACPIGTSPYEIKSGDTLSKIAAKFNTTVGDILNANPGIIPEKLYVGQKICIPQPKSENPGCPTMNYYVIQKGDTLPAIAKIFNVTVQQLINANPGINPNALYVGQVICIPVAPSSVRIIVSIAAKTLSLYRDGRLVKSYPVATGKPTTPTPRGTFTIINKQVNPGGPFGTRWMGLSQPHYGIHGTNNPASIGTAASNGCIRMYNEDVNELFNLVSVGTPVTIY | soluble
21 | MISGLSHITLIVKDLNKTTAFLQNIFNAEEIYSSGDKTFSLSKEKFFLIAGLWICIMEGDSLQERTYNHIAFQIQSEEVDEYTERIKALGVEMKPERPRVQGEGRSIYFYDFDNHLFELHAGTLEQRLKRYHE | soluble
22 | MISIHFEKAHDCHQLFQQLQGYLTKYAELGLKGGIEAGGDETLYVNYENQYVNFYDSFQPLLASIFTDYVISTKEEEWLLDIIENMFYFTDEEEKEQIVAIARSILEGDLEDMPSLSMFTNRREYIYQAFSKHIEENMTFYYDPFLTFRLREYGELLIDCVELAIDEYMMEQEYQSMVETLRQFIHSRIPKRGVIYAVYDERFHFYDEHFRLISTDEIVYDLKEELVFEHGLSVEEMVISPLVSMLPETVKVFTNDEEHGVILTLQAIFQERLKVFPLKDSPHQHREELEHHHHHH | soluble
23 | MISKRNTPQRRHAILALLSEQGEVSVDALAKRFSTSEVTIRKDLAAMESHGLLLRRYGGAVPMPQELIGEAAQPVSPYKQAIGRAAAARIREHARIIIDSGSTTAAMIPELGHKPGLVVMTNSLNVVNALRELEHEPVLLMTGGTWDPHSESFQGQVAEQVLRSYDFDQLFIGADGIDLERGTTTFNELLGLSRVMAEVAREVIVMAEADKVGRRIPNQELPWSSIHTLITDERLESSAREQITARGVTLICTPVEALEHHHHHH | not soluble
24 | MISVFHYHQPKIGNSESEYEDAFSYDVEKGLFAMADGSSESVFSNEWARSLVDTFVAGKYDMKIDDMVETAVGMWRSKLPWNNMKWFVKNKIARGSMATFLGLEVLDGSFRSVAVGDTCLFIITPEGMKSFPVKYPSEFGNTPKLIWTGNPLLRTRRSIKWANYMEGRISESDLLIMATDSLAHWMLSRAKQRPWQILIDHSENEGEFIGSLINSGEMKNDDVTFAIISLK | not soluble
